Experimental findings from PMC3601739 (Chemical communications (Cambridge, England), 2013) are described below.

Series [1] deals with HIV-1 RRE IIB RNA. Description: Electrophoretic mobility shift assay. The format is binding. The settings on record: read-out: Kd (dissociation constant) determined through EMSA; EMSA with RRE IIB. (In EMSA bound probe runs differently from free probe, usually more slowly.)
The target of series [2] is HIV-1 RRE IIB RNA. Description: Dot blot assay, 32P-labeled RRE IIB titrated with BPBAs. The format is binding. The note with it: read-out: Kd (dissociation constant), 32P-labeled RRE IIB titrated with increasing concentration of peptide, average of at least three experiments.
For another series, the system named is BPBA7 (synthetic). Description: dot blot. The settings on record: not stated in the material (details in ESI).
Another series concerns BPBA8 (synthetic). Put plainly: dot blot. The settings on record: not stated in the material (details in ESI).
In the next series the test system is BPBA4 (synthetic). Put plainly: dot blot. The note with it: not stated in the material (details in ESI).
Series [3] relates to BPBA1 (synthetic). Description: dot blot. The note with it: not stated in the material (details in ESI).
The test system of another series is BPBA1.2 (synthetic). Put plainly: dot blot. The settings on record: not stated in the material (details in ESI).
Series [4] concerns BPBA2 (synthetic). Description: dot blot. The note with it: not stated in the material (details in ESI).
Series [5] concerns BPBA3 (synthetic). Description: dot blot. The note with it: not stated in the material (details in ESI).
In another series the test system is BPBA6 (synthetic). Description: dot blot. The settings on record: not stated in the material (details in ESI).
A further series has as its system BPBA5 (synthetic). Description: dot blot. The note with it: not stated in the material (details in ESI).
Series [6] relates to BPBA1 (synthetic). Description: EMSA. The settings on record: not stated in the material (details in ESI).
Series [7] deals with BPBA2 (synthetic). Put plainly: EMSA. The note with it: not stated in the material (details in ESI).
Series [8] deals with BPBA3 (synthetic). Description: EMSA. The settings on record: not stated in the material (details in ESI).

As for (FBPAYFBPA)2 * NKSY [BPBA3], the values for the Kd at HIV-1 RRE IIB RNA [1] and on HIV-1 RRE IIB RNA [2] were 4.6 ± 2.4 µM and 8.7 ± 2.3 µM, respectively.
In the case of (KBBAKFBPA)2 * KBBAKKY [BPBA2], the Kd at HIV-1 RRE IIB RNA [2] amounted to 3.3 ± 1.2 µM.
Same read-out and setting: the value for (KBBAYK)2 * HKKY [BPBA8] was 86.5 ± 10 µM; that for (KKBBAF)2 * KKWY [BPBA5] was 27.2 ± 6.9 µM; that for (KKBBAK)2 * KLKY [BPBA7] was 58.4 ± 4 µM.
As to (KKKBBA)2 * FBPATSY [BPBA4], the Kd on HIV-1 RRE IIB RNA [2] was found to be 26.8 ± 4.4 µM.
As for (WKK)2 * KBBAYWY [BPBA1], the Kd on HIV-1 RRE IIB RNA [2] is 1.4 ± 0.4 µM.
On to HIV-1 RRE IIB RNA, for which the Kd in the series with BPBA7 (synthetic) was 58.4 µM; with BPBA8 (synthetic) it was 86.5 µM; in the series on BPBA4 (synthetic) it was 26.8 µM; in the series with BPBA1 (synthetic) [3], 1400 nM; in the series with BPBA1.2 (synthetic), 800 nM; with BPBA2 (synthetic) [4], 3.3 µM. The Kd was 8.7 µM in the series with BPBA3 (synthetic) [5]; 28.5 µM in the series on BPBA6 (synthetic); 27.2 µM in the series with BPBA5 (synthetic); 300 nM in the series on BPBA1 (synthetic) [6]; 600 nM in the series with BPBA2 (synthetic) [7]; 4.6 µM in the series on BPBA3 (synthetic) [8].
